# Earlier results, collected in US11820970B2, “High throughput protein-protein interaction screening in yeast liquid culture” (University of Washington, priority 2016, dated 2023).
# T1: Bfl1 (Homo sapiens, UniProt Q16548)
# T1 sequence (Q16548 1-175): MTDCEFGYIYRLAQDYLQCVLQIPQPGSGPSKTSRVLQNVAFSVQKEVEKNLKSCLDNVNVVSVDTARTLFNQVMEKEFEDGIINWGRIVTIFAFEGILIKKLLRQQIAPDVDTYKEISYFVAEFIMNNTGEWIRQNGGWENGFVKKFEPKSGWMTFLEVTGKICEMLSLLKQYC
# T2: BclW (Homo sapiens, UniProt Q92843)
# T2 sequence (Q92843 1-193): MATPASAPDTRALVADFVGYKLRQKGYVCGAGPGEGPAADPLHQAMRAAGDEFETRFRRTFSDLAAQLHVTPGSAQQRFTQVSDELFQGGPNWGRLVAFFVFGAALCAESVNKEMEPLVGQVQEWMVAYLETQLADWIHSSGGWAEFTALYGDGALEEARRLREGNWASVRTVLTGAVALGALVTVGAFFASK
# T3: BclB (Homo sapiens, UniProt Q9HD36)
# T3 sequence (Q9HD36 1-204): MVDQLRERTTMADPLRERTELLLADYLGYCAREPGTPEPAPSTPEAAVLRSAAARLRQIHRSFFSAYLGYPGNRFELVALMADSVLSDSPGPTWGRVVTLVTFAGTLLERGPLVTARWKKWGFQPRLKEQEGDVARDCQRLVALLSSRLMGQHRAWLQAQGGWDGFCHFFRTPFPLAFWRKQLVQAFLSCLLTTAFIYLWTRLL
# Columns and labels:
# [1] = target: Bcl2 (Homo sapiens, UniProt P10415); details: binder vs Bcl2; known affinities; read-out: AFFINITY
# [2] = target: T1, Bfl1; details: binder vs Bfl1; known affinities; read-out: AFFINITY
# [3] = target: Mcl1 (Homo sapiens, UniProt Q07820); details: binder vs Mcl1; known affinities; read-out: AFFINITY
# [4] = target: T2, BclW; details: binder vs BclW; known affinities; read-out: AFFINITY
# [5] = target: T3, BclB; details: binder vs BclB; known affinities; read-out: AFFINITY
# [6] = target: BclXL (Homo sapiens, UniProt Q07817); details: binder vs BclXL; known affinities; read-out: AFFINITY
# Sequence of BclXL (Q07817 whole entry, species assumed): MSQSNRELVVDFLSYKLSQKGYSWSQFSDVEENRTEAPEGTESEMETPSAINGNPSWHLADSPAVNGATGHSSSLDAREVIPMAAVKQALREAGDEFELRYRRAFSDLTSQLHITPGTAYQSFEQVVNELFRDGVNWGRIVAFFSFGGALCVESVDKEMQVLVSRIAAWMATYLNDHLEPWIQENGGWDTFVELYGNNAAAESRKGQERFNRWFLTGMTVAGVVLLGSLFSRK
# Sequence of Mcl1 (Q07820 whole entry, species assumed): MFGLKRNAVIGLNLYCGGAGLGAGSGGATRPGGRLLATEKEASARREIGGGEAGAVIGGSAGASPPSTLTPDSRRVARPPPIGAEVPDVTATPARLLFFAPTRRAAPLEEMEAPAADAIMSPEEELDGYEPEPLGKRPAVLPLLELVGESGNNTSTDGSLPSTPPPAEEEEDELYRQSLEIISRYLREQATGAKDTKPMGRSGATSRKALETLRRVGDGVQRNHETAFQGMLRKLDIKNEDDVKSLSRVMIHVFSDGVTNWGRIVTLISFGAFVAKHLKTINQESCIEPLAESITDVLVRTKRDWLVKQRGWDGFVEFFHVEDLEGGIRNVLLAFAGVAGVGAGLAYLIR
# Sequence of Bcl2 (P10415 whole entry, species assumed): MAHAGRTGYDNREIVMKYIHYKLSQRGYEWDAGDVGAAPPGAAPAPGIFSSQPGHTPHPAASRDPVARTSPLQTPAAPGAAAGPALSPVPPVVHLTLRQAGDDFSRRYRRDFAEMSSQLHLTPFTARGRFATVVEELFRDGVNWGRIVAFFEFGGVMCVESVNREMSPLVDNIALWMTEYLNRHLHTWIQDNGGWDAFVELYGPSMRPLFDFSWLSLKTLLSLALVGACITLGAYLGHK
Molecule,Kd [1],Kd [2],Kd [3],Kd [4],Kd [5],Kd [6]
"X-CDP07: de novo (engineered) binding protein for Bcl2 family homologues, displayed as SAP (protein) ADPKKVLDKAKDRAENVVRKLKKELEELYKEARKLDLTQEMRDRIRLAAIAARIAAFGDIFHAIMEALEEARKLKKAGLVNSQQLDELKRRLEELDEEAAQRAEKLGKEFELKLEY",3.81 nM,7050 nM,17.4 nM,14.9 nM,107 nM,0.59 nM
"B-CDP01: de novo (engineered) binding protein for Bcl2 family homologues, displayed as SAP (protein) ADPKKVLDKAKDQAENRVRELKQELERLYKEARKLDLTQEMRRKLEWRYIAAMLKAIGDILNAIAQAENEADKLKKAGLVNSQQLDELRRRLEELAKEAARKAHDYGREFQLKLEY",17.3 nM,518 nM,0.46 nM,2010 nM,8.33 nM,20.2 nM
